Results from paper PMC9253678, “Computer-Aided Design of α-L-Rhamnosidase to Increase the Synthesis Efficiency of Icariside I” (Frontiers in Bioengineering and Biotechnology, 2022).

Substrate: COc1ccc(-c2oc3c(CC=C(C)C)c(O[C@@H]4O[C@H](CO)[C@@H](O)[C@H](O)[C@H]4O)cc(O)c3c(=O)c2O[C@@H]2O[C@@H](C)[C@H](O)[C@@H](O)[C@H]2O)cc1
Assay: HPLC of icariside I formation, Michaelis-Menten nonlinear fit
Assay type: biochemical, Thermotoga petrophila
Settings: pH 4.6, icariin 0.1–4 mg/ml
From the text: HPLC of icariside I formation, Michaelis-Menten nonlinear fit on […]

[1] = optimal conditions of the mutant: 70°C
[2] = optimal conditions of the mutant: 80°C

B1: TpeRha (Thermotoga petrophila RKU-1; D506A/K579A) (protein)
chain: MIQACDLRCEYLTSPVLGLDVIPRFSWRLKGNGKKQTRYKIIVSDNFDDIERGIGNVWESEKDSSKNLNIEYEGPKLKAYKGYYWRVKLWDEKENGPWSETAYFEMGPLEDWRGKWITMPSPLSFKDPAHRHELFYAMYFRKEFLLNKEVEKARVYVSGLGVYELHLNGKRVGNNVLDPAPTDYNKVALYSTYDVTQYLTTGKNTIGVILGNGRHIRDYGYSKPKLYLQLLVFYKDGSREFICSDETWKVSHGPLKENGIYFGEVYDARDEISGWDSPGFDDRNWSEVEIVEGPSLKAQLIPVIRVCEVIKPKRLWLSSRGTFIVDFGKNISGWVKLRVNNGKRGEKIIIRYAEVLDPSMDRLDTRNLRLARATDEYILKGQGVEIYEPRFTYHGFRYVEVEDYPGTLTSDNIEAMFVHTDVEKVGDFACSSELLNKIHSCVVNSQLANLMGIPTDCPQRDERMGWLGDAQLTVEEAMYNFDMAAFYTKYLMDIKLSQKEDGSISAVAPPYWKRYPSDPAWGTAYATILWYLYFFYEDRRVLEEHYDSLKRYVEFLRKNSPNHLTKLGQHGDWCPPGDAFPKRTPLILTSTWYYYHDTLILSEIAKILGKKEDEHEYRKLAGEIKEAFNRHFLRKVEDHTGRIVCFYRGIKLSPKDRIPTTQTCNVLPLWNKMVPEECREDVFKVLERLIEVDNDTHFDTGIVGTRYILEVLSENGRKDLALKLLLKEDYPSFGYMIKNGATTLWERWEKLEGTGMNSHNHVMLGSVDTWFYKYLSGIKPVAPGWKKIRIEPYFADQIDFVSAKIKTPNGSLEVSWKKQNKEYEIQIIIPVNTVGIFAVPESFKVSAINSKQVSYPSEFELEPGAYNIVLERVREC
notes: codon-optimized synthetic gene in pET-28a, E. coli BL21(DE3), Ni-NTA purified (His tag of vector); model domains span 1-861
Km [1]: 1.39 ± 0.45 µM | Vmax [1]: 1.37 µM/min | kcat [1]: 5.68e-05 s⁻¹ | kcat/Km [1]: 40.9 M⁻¹ s⁻¹

B2: TpeRha (Thermotoga petrophila RKU-1; H570A/K579A) (protein)
chain: MIQACDLRCEYLTSPVLGLDVIPRFSWRLKGNGKKQTRYKIIVSDNFDDIERGIGNVWESEKDSSKNLNIEYEGPKLKAYKGYYWRVKLWDEKENGPWSETAYFEMGPLEDWRGKWITMPSPLSFKDPAHRHELFYAMYFRKEFLLNKEVEKARVYVSGLGVYELHLNGKRVGNNVLDPAPTDYNKVALYSTYDVTQYLTTGKNTIGVILGNGRHIRDYGYSKPKLYLQLLVFYKDGSREFICSDETWKVSHGPLKENGIYFGEVYDARDEISGWDSPGFDDRNWSEVEIVEGPSLKAQLIPVIRVCEVIKPKRLWLSSRGTFIVDFGKNISGWVKLRVNNGKRGEKIIIRYAEVLDPSMDRLDTRNLRLARATDEYILKGQGVEIYEPRFTYHGFRYVEVEDYPGTLTSDNIEAMFVHTDVEKVGDFACSSELLNKIHSCVVNSQLANLMGIPTDCPQRDERMGWLGDAQLTVEEAMYNFDMAAFYTKYLMDIKLSQKEDGSISDVAPPYWKRYPSDPAWGTAYATILWYLYFFYEDRRVLEEHYDSLKRYVEFLRKNSPNHLTKLGQAGDWCPPGDAFPKRTPLILTSTWYYYHDTLILSEIAKILGKKEDEHEYRKLAGEIKEAFNRHFLRKVEDHTGRIVCFYRGIKLSPKDRIPTTQTCNVLPLWNKMVPEECREDVFKVLERLIEVDNDTHFDTGIVGTRYILEVLSENGRKDLALKLLLKEDYPSFGYMIKNGATTLWERWEKLEGTGMNSHNHVMLGSVDTWFYKYLSGIKPVAPGWKKIRIEPYFADQIDFVSAKIKTPNGSLEVSWKKQNKEYEIQIIIPVNTVGIFAVPESFKVSAINSKQVSYPSEFELEPGAYNIVLERVREC
notes: as for B1
Km [2]: 0.93 ± 0.08 µM | Vmax [2]: 5.56 µM/min | kcat [2]: 0.000118 s⁻¹ | kcat/Km [2]: 127 M⁻¹ s⁻¹
